In US20140315253A1 one finds Kd data, which are given here for 2 substances.

The target in this assay is type I collagen (collagen membrane or collagen gel). Description: modified ELISA on type I collagen membrane (6.0 mg), Kd calculated by Matsushita's method.

The term Kd denotes the equilibrium constant for the complex coming apart. With “NAT-NGF, beta-NGF mature peptide with the histidine-affinity tag (ligand)”, the equilibrium dissociation constant (Kd) is 1500 nM.

With “CBD-NGF, histidine-affinity tagged fusion protein comprising the collagen binding domain and beta-NGF mature peptide”, the dissociation constant (Kd) is 510 nM.
